Test results: patent US9823254B2, “Reversible chemoenzymatic labeling of native and fusion carrier protein motifs” (The Regents of the University of California, priority 2012, dated 2017)
“And” between values parts separate entries of the source, which are not always exact repeats. Identical values can stand only once.

Key:
S. coelicolor ActACP = biological target: T1, S. coelicolor ActACP (Streptomyces coelicolor, UniProt Q02054); assay: AcpH qualitative CP activity, gel-based, crypto-CP; assay type: biochemical; conditions: PKS; crypto-CP (coumarin-PPant), overnight, 37° C., 1 μM AcpH
T1 construct: made in house
T1 sequence (Q02054 whole entry, looked up): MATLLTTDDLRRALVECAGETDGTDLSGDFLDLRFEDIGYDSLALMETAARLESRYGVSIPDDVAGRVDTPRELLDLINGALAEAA

A. parasiticus PksA = biological target: T2, A. parasiticus PksA (Aspergillus parasiticus, UniProt Q12053); assay: AcpH qualitative CP activity, gel-based, crypto-CP; assay type: biochemical; conditions: PKS; crypto-CP (coumarin-PPant), overnight, 37° C., 1 μM AcpH
T2 construct: made in house

P. syringae SyrB1 = P. syringae SyrB1 (Pseudomonas syringae pv. syringae, UniProt Q52400); assay: AcpH qualitative CP activity, gel-based, crypto-CP; assay type: biochemical; conditions: NRPS; crypto-CP (coumarin-PPant), overnight, 37° C., 1 μM AcpH
S. oneidensis AcpP = assay: AcpH qualitative CP activity, holo-SoAcpP, Urea-PAGE; assay type: biochemical; conditions: FAS, Urea-PAGE gel-shift, shorter timescale
V. cholerae VibB = biological target: T3, V. cholerae VibB (Vibrio cholerae serotype O1, UniProt P0C6D3); conditions: NRPS; crypto-CP (coumarin-PPant), overnight, 37° C., 1 μM AcpH
T3 sequence (P0C6D3 whole entry, looked up): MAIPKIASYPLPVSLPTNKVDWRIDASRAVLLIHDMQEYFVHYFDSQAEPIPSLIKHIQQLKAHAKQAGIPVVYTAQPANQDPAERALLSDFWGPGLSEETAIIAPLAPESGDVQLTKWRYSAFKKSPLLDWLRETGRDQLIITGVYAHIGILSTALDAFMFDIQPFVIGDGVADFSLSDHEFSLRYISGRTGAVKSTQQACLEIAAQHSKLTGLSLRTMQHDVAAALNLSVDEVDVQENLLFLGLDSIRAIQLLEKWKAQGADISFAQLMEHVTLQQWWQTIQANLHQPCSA

P. falciparum ACP = assay: AcpH qualitative CP activity, gel-based, crypto-CP; assay type: biochemical; conditions: FAS; crypto-CP (coumarin-PPant), overnight, 37° C., 1 μM AcpH
P. fluorescens PltL = assay: AcpH qualitative CP activity, gel-based, crypto-CP; assay type: biochemical; conditions: NRPS; crypto-CP (coumarin-PPant), overnight, 37° C., 1 μM AcpH
L majuscula JamF = assay: AcpH qualitative CP activity, gel-based, crypto-CP; assay type: biochemical; conditions: PKS; crypto-CP (coumarin-PPant), overnight, 37° C., 1 μM AcpH
crypto-FITC-YbbR (3) = biological target: T4, crypto-FITC-YbbR (3) (Bacillus subtilis, UniProt O34659); assay: FRET-quench microwell AcpH kinetics; assay type: biochemical; conditions: 37° C., FRET-quench microwell plate assay, [AcpH] 1 μm
T4 construct: made in house; host or cells: enzymatic labelling of FITC-ybbR peptide with Sfp and rhodamine-CoA
T4 sequence (O34659 whole entry, looked up): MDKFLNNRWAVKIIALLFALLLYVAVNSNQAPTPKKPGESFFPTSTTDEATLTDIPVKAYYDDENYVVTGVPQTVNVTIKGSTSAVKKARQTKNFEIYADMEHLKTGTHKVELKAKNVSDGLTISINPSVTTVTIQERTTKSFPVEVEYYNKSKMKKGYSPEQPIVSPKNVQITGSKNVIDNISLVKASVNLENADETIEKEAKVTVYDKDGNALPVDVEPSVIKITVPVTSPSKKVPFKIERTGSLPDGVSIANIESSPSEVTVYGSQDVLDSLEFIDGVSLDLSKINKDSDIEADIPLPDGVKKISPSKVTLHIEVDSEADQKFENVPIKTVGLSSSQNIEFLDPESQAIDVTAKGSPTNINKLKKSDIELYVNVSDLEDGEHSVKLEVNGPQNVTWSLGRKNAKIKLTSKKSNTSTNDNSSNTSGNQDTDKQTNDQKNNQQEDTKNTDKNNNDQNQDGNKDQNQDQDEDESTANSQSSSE
Experimental: Preparation of rhodamine-labeled FITC-ybbR proceeded via reaction of 200 μM FITC-ybbR with 200 μM rhodamine WT-CoA synthesized as described previously^33 with 1 μM Sfp in 50 mM HEPES pH 7.5 and 10 mM MgCl2 for 2 hours at 37° C.
Rhodamine-labeled FITC-Ybbr as well as standard 1:1 apo-FITC-ybbR:rhodamine-CoA was subjected to an 11-point serial dilution in 50 mM TrisCl pH 8.0 to achieve final concentrations of 400-0.4 μM. […] Total reaction volumes were 50 μL and utilized a 96-well Costar 3694 plate (Corning, Lowell, Mass.). Following mixing, reactions were centrifuged for 2 minutes at 1500 rpm, and incubated at 37° C. over 4 hours in a HTS 7000 plus Bioassay Reader (Perkin Elmer, Waltham, Mass.) in kinetic mode. Comparison of enzyme reactions to buffer blank and 1:1 apo-FITC-ybbR:rhodamine-CoA standard allowed calculation of product formation and determination of Michaelis-Menten kinetics using GraphPad Prism.

L majuscula JamC = biological target: T5, L majuscula JamC (Moorena producens, UniProt Q6E7K7); assay: AcpH qualitative CP activity, gel-based, crypto-CP; assay type: biochemical; conditions: PKS; crypto-CP (coumarin-PPant), overnight, 37° C., 1 μM AcpH
T5 construct: made in house

M. tuberculosis AcpM = M. tuberculosis AcpM (Mycobacterium tuberculosis, UniProt P9WQF3); conditions: FAS; crypto-CP (coumarin-PPant), overnight, 37° C., 1 μM AcpH
holo-ACP (E. coli) = holo-ACP (E. coli) (Escherichia coli, UniProt P0A6A8); conditions: 37° C., HPLC detection, [AcpH] 1 (CyAcpH 0.005) μm
Experimental: Holo-E. coli AcpP was prepared as a serial dilution in 50 mM TrisCl, 250 mM NaCl, 30 mM MgCl2, and 2 mM MnCl2. […] CyAcpH was prepared at 10 nM in the same AcpH buffer. […] Reactions were transferred to prewarmed shaker at 37° C. and were quenched with 100 mM EDTA after 10 minutes. Samples were centrifuged and evaluated at 210 nm with HPLC using an acetonitrile gradient to determine apo-AcpP product formation. Michaelis-Menten kinetics were calculated using GraphPad Prism (GraphPad Software, La Jolla, Calif.).
E. coli holo-ACP was diluted into 50 mM TrisCl pH 8.0, 250 mM NaCl, 10% glycerol, 30 mM MgCl2 and 2 mM MnCl2 buffer to a concentration of 800 μM. […] AcpH was diluted from MOPS lysis buffer into 50 mM TrisCl pH 8.0, 250 mM NaCl, 10% glycerol and added to an equal volume of the holo-ACP serial dilution to initiate the reaction. Reaction tubes were transferred to a pre-warmed rack at 37° C. and shaken for the duration of the experiment. […] All samples were frozen at -80° C. until evaluated by HPLC.
Kinetics samples were mixed briefly with finger flicking, and centrifuged at 13000 rpm for 10 minutes at room temperature prior to transferring contents into HPLC vials. 20 μL of each reaction time point was injected on an Agilent 1100 series HPLC with column (Burdick & Jackson OD5 #9575, 25 cm×4.6 mm ID) using an acetonitrile/water gradient. Both water and acetonitrile contained 0.05% TFA. Method gradient for each injection: 0-5 min with 10% acetonitrile, 5-30 min with 10-100% acetonitrile, 30-35 min with 100% acetonitrile, 35-37 min with 100-10% acetonitrile, 37-40 min with 10% acetonitrile. HPLC-grade solvents (J. T. Baker, Phillipsburg, N.J.) were used exclusively. Apo- & holo-ACP protein standards were used to validate the retention times identified using 210 nm UV light at approximately 21 and 19 minutes, respectively. Peak integration was performed for all samples, and substrate turnover was calculated from the ratio of apo- to holo-ACP present in the HPLC trace and the known concentration of total ACP in reaction samples. Calculated rates for AcpH versus substrate concentration were obtained through Excel data analysis and graphed in Prism GraphPad using the “Michaelis-Menten” function for enzyme kinetics, with a zero data point added for substrate concentration of 0 μM*min-1 and 0 μM substrate for AcpH graphs.

P. agglomerans AdmA = assay: AcpH qualitative CP activity, gel-based, crypto-CP; assay type: biochemical; conditions: NRPS; crypto-CP (coumarin-PPant), overnight, 37° C., 1 μM AcpH
M. tuberculosis MAS = assay: AcpH qualitative CP activity, gel-based, crypto-CP; assay type: biochemical; conditions: FAS (FAS/PKS hybrid), overnight, 37° C., 1 μM AcpH
P. agglomerans AdmI = assay: AcpH qualitative CP activity, gel-based, crypto-CP; assay type: biochemical; conditions: PKS; crypto-CP (coumarin-PPant), overnight, 37° C., 1 μM AcpH
G. fujikuroi Pks4 = assay: AcpH qualitative CP activity, gel-based, crypto-CP; assay type: biochemical; conditions: PKS; crypto-CP (coumarin-PPant), overnight, 37° C., 1 μM AcpH
YbbR13 = assay: AcpH activity with modified ybbR peptide, qualitative; assay type: biochemical; conditions: for AcpH activity with modified ybbR peptide: coumarin-PPant labeled
E. coli AcpP = E. coli AcpP (Escherichia coli, UniProt P0A6A8); conditions: FAS; crypto-CP (coumarin-PPant), overnight, 37° C., 1 μM AcpH
Experimental: (§1) Unless otherwise noted, all coumarin-PPant labeling proceeded as follows: apo-carrier protein or peptide at 50-200 μM were labeled in 50 mM Na-HEPES pH 7.5, 10 mM MgCl2, 8 mM ATP, 0.1 μM MBP-CoaA/D/E, 0.1 μM native Sfp, and 1.1 equivalents of coumarin-pantetheine at 37° C. overnight. Crypto-protein samples were repurified using standard IMAC techniques in pH 8 lysis buffer with Ni-NTA resin, and spin-concentrated/buffer exchanged to remove imidazole and concentrate with 0.5 mL 3 kDa MWCO cellulose filters. Crypto-peptide samples were purified with HPLC, lyophilized, and redissolved in 50 mM TrisCl pH 8.0 prior to analysis.
(§2) Following AcpH treatment, an equal volume of 2×SDS-PAGE loading dye was added to crypto-carrier proteins samples and heated 5 min at 90° C., and run on 12% or 15% SDS-PAGE. Gels were fixed in 50/40/10% water/methanol/acetic acid for 30 minutes, and washed with water three times before UV imaging. Holo-carrier protein reactions were analyzed with Urea-PAGE as previously described.^6 All protein gels were Coomassie stained for evaluating total protein. Crypto-peptides were evaluated on Urea-PAGE, and were imaged immediately after running with no gel fixing.

P. aeruginosa AcpP = P. aeruginosa AcpP (Pseudomonas aeruginosa, UniProt O54439); conditions: FAS; crypto-CP (coumarin-PPant), overnight, 37° C., 1 μM AcpH
Experimental: as §1, §2

A. orientalis CepK = assay: AcpH qualitative CP activity, gel-based, crypto-CP; assay type: biochemical; conditions: NRPS; crypto-CP (coumarin-PPant), overnight, 37° C., 1 μM AcpH
apo-E. coli AcpP = apo-E. coli AcpP (Escherichia coli, UniProt P0A6A8); conditions: Sfp for apo-E. coli AcpP; cited from earlier work
ybbR = biological target: T6, ybbR (Bacillus subtilis, UniProt O34659); conditions: Sfp for ybbR; cited from earlier work
T6 sequence (O34659 whole entry, looked up): T4 sequence (O34659 whole entry, looked up)

B1: CyAcpH: acyl carrier protein hydrolase homolog from Cyanothece PCC 7822, YP13 003888700.1 (protein)
chain: MNYLAHLFLADPTPESQIGNLLGDFVKGKIDNLSSIYSPEIIRGVKTHQKIDIFTDHHPIFKTSKQRLNQNHRKFAGVIIDIYYDHFLAKNWLIYSEQDLDEFVANTYQMLEQHQLLLPEKLQKALPCMIQEDWLGSYRYFEGIDQTFSRLSRRIKRTNNIAFALEDLIQNYSQLEEDFLQFFPQLIDYVNLA
modifications: Cyanothece sp. PCC 7822
AcpH qualitative CP activity (S. coelicolor ActACP): no | AcpH qualitative CP activity (A. parasiticus PksA): YES | AcpH qualitative CP activity (P. syringae SyrB1): no | AcpH qualitative CP activity (S. oneidensis AcpP): YES^† | AcpH qualitative CP activity (V. cholerae VibB): no | AcpH qualitative CP activity (P. falciparum ACP): YES | AcpH qualitative CP activity (P. fluorescens PltL): no | AcpH qualitative CP activity (L majuscula JamF): no | Km (crypto-FITC-YbbR (3)): 21 µM | Vmax (crypto-FITC-YbbR (3)): 0.004 ± 0.004 min⁻¹ | kcat (crypto-FITC-YbbR (3)): 6.7e-05 ± 6.7e-05 s⁻¹ | AcpH qualitative CP activity (L majuscula JamC): YES | AcpH qualitative CP activity (M. tuberculosis AcpM): YES | Km (holo-ACP (E. coli)): 58 ± 9 µM | Vmax (holo-ACP (E. coli)): 1.1 ± 0.1 min⁻¹ | kcat (holo-ACP (E. coli)): 3.52 s⁻¹ and 3.52 ± 0.183 s⁻¹ | AcpH qualitative CP activity (P. agglomerans AdmA): no | AcpH qualitative CP activity (M. tuberculosis MAS): no | AcpH qualitative CP activity (P. agglomerans AdmI): no | AcpH qualitative CP activity (G. fujikuroi Pks4): no | qualitative activity for all ybbR constructs (YbbR13; Coumarin-PPant conjugated to all ybbR variations, Urea-PAGE): qualitative activity | AcpH activity with modified ybbR peptide (YbbR13; YbbR13: N-term 6xHis, C-term GFP): YES | AcpH activity with modified ybbR peptide (YbbR13; YbbR13: N-term FITC, C-term N/A): YES | AcpH activity with modified ybbR peptide (YbbR13; YbbR13: N-term GFP, C-term 6xHis): YES | AcpH activity with modified ybbR peptide (YbbR13; YbbR13 free peptide: N-term N/A, C-term N/A): YES | AcpH qualitative CP activity (E. coli AcpP): YES | AcpH qualitative CP activity (P. aeruginosa AcpP): YES | AcpH qualitative CP activity (A. orientalis CepK): no

B2: Sfp: phosphopantetheinyl transferase (PPTase) from Bacillus subtilis (protein, UniProt P39135 1-224, looked up)
4'-phosphopantetheinyl …: MKIYGIYMDRPLSQEENERFMSFISPEKREKCRRFYHKEDAHRTLLGDVLVRSVISRQYQLDKSDIRFSTQEYGKPCIPDLPDAHFNISHSGRWVICAFDSQPIGIDIEKTKPISLEIAKRFFSKTEYSDLLAKDKDEQTDYFYHLWSMKESFIKQEGKGLSLPLDSFSVRLHQDGQVSIELPDSHSPCYIKTYEVDPGYKMAVCAAHPDFPEDITMVSYEELL
kcat (apo-E. coli AcpP): 0.0967 s⁻¹ | kcat (ybbR): 11
